According to the supplement of paper PMC9732359:
± gives the uncertainty stated by the source.

Test: protein stability index of a GFP-peptide fusion (yeast GPS) (PSI 1-4); higher = more stable; sorted into four equal gates, so the index is relative within each strain
Outline: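 Tiled yeast protein peptides of 17 residues were each joined downstream of GFP, on plasmids that also express Cherry. The pooled library was maintained in yeast, and mid-log cultures in leucine-free medium were sorted into four equal gates on the GFP/Cherry ratio. Plasmids from every gate were amplified by PCR and sequenced on Illumina, with barcodes linking reads to strains. The protein stability index of a peptide is its gate-number-weighted read frequency summed over the gates.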

Row | Sequence | protein stability index (doa10∆) | protein stability index (pdr5∆) | protein stability index (san1∆) | protein stability index (ubr1∆)
1 | AKFRLILIESRIHRLAR [RPS13] | 1.52 ± 0.099 | 1.97 ± 0.18 | 1.7 ± 0.18 | 2.5 ± 0.15
2 | AKIISKAPEQFIENFLT [YML103C/NUP188] | 2.69 ± 0.17 | 2.94 ± 0.26 | 2.54 ± 0.2 | 2.89 ± 0.2
3 | AKKRRPAAKGKNLSFKR [RRP6] | 2.9 ± 0.12 | 2.92 ± 0.09 | 2.67 ± 0.095 | 2.81 ± 0.085
4 | AKLRKELVETSEVRKAV [FAS2] | 2.7 ± 0.16 |  |  | 1.38 ± 0.25
5 | AKNIISNVLDGNKNQFE [LRP1] | 2.46 ± 0.056 | 2.77 ± 0.049 | 2.92 ± 0.045 | 3.23 ± 0.049
6 | AKSNEDKQDGTAKPAFS [YJL041W/NSP1] | 3.03 ± 0.23 | 3.44 ± 0.13 | 3.29 ± 0.17 | 2.96 ± 0.29
7 | AKTLTYPEVVTPYNIDR [RPO21] | 2.17 ± 0.074 | 2.35 ± 0.078 | 1.94 ± 0.073 | 2.05 ± 0.074
8 | ALDTNGTSATTETLTSK [SIR4] | 2.22 ± 0.076 | 2.19 ± 0.066 | 2.9 ± 0.065 | 1.93 ± 0.045
9 | ALEDEERDEILTLTDSQ [BRR2] | 3.09 ± 0.13 | 3.25 ± 0.14 | 3.23 ± 0.088 | 3.12 ± 0.16
10 | ALIFIFFAYFIGWCKED [YJL039C/NUP192] | 1.84 ± 0.088 | 1.54 ± 0.062 | 2.03 ± 0.093 | 1.88 ± 0.062
11 | ALLRENQDSVKTYALES [RPN2] | 3.35 ± 0.15 | 2.56 ± 0.16 | 2.56 ± 0.12 | 2.94 ± 0.1
12 | ALLRVTKSKNKTLIGLQ [POP4] | 2.71 ± 0.055 | 2.18 ± 0.053 | 2.27 ± 0.052 | 2.47 ± 0.049
13 | ALLTKRLYPHWDHPVIA [CSN12] | 2.19 ± 0.13 | 1.91 ± 0.1 | 1.7 ± 0.17 | 1.89 ± 0.068
14 | ALMKTLIKFVDLSRNGR [NUT1] | 2.37 ± 0.11 | 2.29 ± 0.09 | 2.26 ± 0.11 | 2.65 ± 0.15
15 | ALPSTHKVTQKKDIKIG [SIR4] | 2.36 ± 0.099 | 2.46 ± 0.071 | 2.56 ± 0.07 | 2.77 ± 0.067
16 | ALQILNSGIIPGNRNAD [FAS2] | 2.38 ± 0.075 | 1.9 ± 0.068 | 2.72 ± 0.1 | 2.8 ± 0.052
17 | ALREMRKSDQQDVLKGS [POP1] | 3.36 ± 0.17 | 3.56 ± 0.16 | 3.43 ± 0.14 | 3.22 ± 0.11
18 | ALSIADDASSAELLGRV [RPC53] | 3.02 ± 0.16 | 2.92 ± 0.26 | 3.21 ± 0.18 | 3.12 ± 0.085
19 | ALTDFERFQVMVLRKQK [RPL14A] | 1.96 ± 0.11 | 1.97 ± 0.11 | 1.62 ± 0.12 | 2.16 ± 0.065
20 | ALVFAALEHLKNLSLLA [SRP68] | 2.79 ± 0.12 | 2.75 ± 0.14 | 3.07 ± 0.065 | 2.92 ± 0.096
21 | ALVYSYIEASGREGIWS [RPC34] | 3.13 ± 0.24 | 2.87 ± 0.24 | 2.28 ± 0.17 | 2.52 ± 0.11
22 | AMLNLINDNNTRPYILE [YCG1] | 3.22 ± 0.11 | 3.35 ± 0.15 | 3.08 ± 0.11 | 3.23 ± 0.19
23 | AMSETLSKVSLLTPDIG [PRE8] | 3.08 ± 0.11 | 3.19 ± 0.12 | 3.04 ± 0.13 | 3.35 ± 0.23
24 | AMVEKYAPDVVRSLENL [RRP42] | 2.59 ± 0.13 | 2.81 ± 0.067 | 2.65 ± 0.052 | 3.14 ± 0.038
25 | ANCQRQLTEFWTELCQR [NNF1] | 3.09 ± 0.081 | 2.87 ± 0.08 | 3 ± 0.075 | 2.82 ± 0.099
26 | ANKTNLIESLNTIRQNV [YML103C/NUP188] | 1.57 ± 0.053 | 1.83 ± 0.053 | 1.73 ± 0.12 | 1.77 ± 0.063
27 | ANLLPARQFGYVILTTS [RPS22A] | 1.29 ± 0.053 | 1.35 ± 0.044 | 1.2 ± 0.094 | 1.11 ± 0.046

Row | Sequence | protein stability index (doa10∆) | protein stability index (pdr5∆) | protein stability index (san1∆) | protein stability index (ubr1∆)
28 | ANLMLVMLRLLLVVIFK [SRB4] | 1.49 ± 0.045 | 1.51 ± 0.047 | 1.24 ± 0.088 | 1.46 ± 0.034
29 | ANNNMNDELVELLANKC [GRR1] | 2.79 ± 0.061 | 2.92 ± 0.044 | 2.78 ± 0.059 | 2.99 ± 0.046
30 | ANQSATSTPPPPPAPHN [SNF5] | 2.98 ± 0.041 | 3.03 ± 0.034 | 2.82 ± 0.034 | 3.1 ± 0.032
31 | ANVPSTATTGKRKPAKS [RPN4] | 2.64 ± 0.073 | 2.88 ± 0.082 | 2.64 ± 0.05 | 2.8 ± 0.05
32 | APAVELHGNAKKAAEEA [FAS2] | 3.42 ± 0.12 | 3.11 ± 0.14 | 3.1 ± 0.12 | 3.3 ± 0.15
33 | APDGSASISLPNHIPSV [SWP82] | 3.36 ± 0.11 | 2.54 ± 0.068 | 2.77 ± 0.097 | 3.3 ± 0.044
34 | APKIHILDPSTEYCVGD [YMR129W/POM152] | 2.91 ± 0.13 | 3.35 ± 0.092 | 2.97 ± 0.087 | 2.79 ± 0.13
35 | APKWYPSEDVAALKKTR [RPL6A] | 2.5 ± 0.07 | 2.97 ± 0.063 | 2.75 ± 0.049 | 2.53 ± 0.051
36 | APPQTRKFQPPPGFKRK [SMB1] | 3.18 ± 0.088 | 3.19 ± 0.1 | 3.17 ± 0.084 | 3.28 ± 0.063
37 | APSDFSENQRQIFCVFS [GRR1] | 2.93 ± 0.071 | 2.58 ± 0.078 | 2.76 ± 0.064 | 2.65 ± 0.057
38 | APSGIRMHLAPASKQGY [SSN2] | 2.24 ± 0.17 | 2.48 ± 0.11 | 2.22 ± 0.13 | 2.36 ± 0.097
39 | APTLSQTYINQELGFCE [SSN2] | 2.85 ± 0.18 | 2.81 ± 0.16 | 1.95 ± 0.22 | 2.92 ± 0.18
40 | APYRKQIISNAHNKPSL [YAR002W/NUP60] | 2.17 ± 0.073 | 2.47 ± 0.081 | 2 ± 0.1 | 2.36 ± 0.085
41 | AQAQAQAQAQAQAAQAA [GAL11] | 2.91 ± 0.055 | 3.27 ± 0.045 | 3.258 ± 0.023 | 3.15 ± 0.057
42 | AQFQYTLDRNTAAETFK [RPL8A] | 2.15 ± 0.082 | 2.08 ± 0.082 | 2.64 ± 0.27 | 2.06 ± 0.049
43 | AQGKEFGVTKARWPAKS [RPL17A] | 3.02 ± 0.13 | 3.49 ± 0.12 | 3.26 ± 0.066 | 3.35 ± 0.097
44 | AQGVAVQLKRQPAQPRE [RPL21A] | 1.66 ± 0.088 | 1.22 ± 0.081 | 1.61 ± 0.084 | 1.88 ± 0.07
45 | AQQAQQAQQAQQAQARL [SNF2] | 3.08 ± 0.051 | 3.24 ± 0.048 | 3.13 ± 0.035 | 3.2 ± 0.045
46 | AQQDSTNVRLYSLLLAS [ECM29] | 2.27 ± 0.068 | 2.04 ± 0.052 | 2.39 ± 0.047 | 2.43 ± 0.04
47 | AQQKLKQNPGLMQNMMN [SRP54] | 2.74 ± 0.056 | 2.42 ± 0.059 | 2.79 ± 0.044 | 2.54 ± 0.033
48 | AQWERSKLSQEFLYPHL [SNF12] | 3.1 ± 0.088 | 3 ± 0.084 | 2.83 ± 0.071 | 3.08 ± 0.062
49 | ARDAPTKISTLAVKVHG [QCR2] | 1.4 ± 0.11 | 2.09 ± 0.14 | 1.38 ± 0.14 | 1.09 ± 0.045
50 | ARIIAAIPNPEDVVAIS [RPS0A] | 1.8 ± 0.071 | 2.14 ± 0.083 | 2.34 ± 0.091 | 2.31 ± 0.083
51 | ARKETYSSYIYKVLKQT [HTB1] | 2.89 ± 0.058 | 2.43 ± 0.048 | 1.97 ± 0.072 | 2.47 ± 0.037
52 | ARKSAPSTGGVKKPHRY [HHT1] | 1.66 ± 0.065 | 1.87 ± 0.052 | 2.03 ± 0.075 | 2.03 ± 0.063
53 | ARLDGHDFLFNTIIRDG [RPN14] | 2.83 ± 0.091 | 2.95 ± 0.06 | 3.32 ± 0.056 | 2.81 ± 0.044
